From patent US20040038249A1, “Inducible expression systems employing PPAR transcriptional activators” (priority 2002, published 2004)
Residue numbers refer to the chain shown, from its start.

B1: GSG: human PPARγ2 with GSCKG substitutions in the P-box (SEQ ID NO: 7) (protein)
chain: MGETLGDSPIDPESDSFTDTLSANISQEMTMVDTEMPFWPTNFGISSVDLSVMEDHSHSFDIKPFTTVDFSSISTPHYEDIPFTRTDPVVADYKYDLKLQEYQSAIKVEPASPPYYSEKTQLYNKPHEEPSNSLMAIECRVCGDKASGFHYGVHACGSCKGFFRRTIRLKLIYDRCDLNCRIHKKSRNKCQYCRFQKCLAVGMSHNAIRFGRMPQAEKEKLLAEISSDIDQLNPESADLRALAKHLYDSYIKSFPLTKAKARAILTGKTTDKSPFVIYDMNSLMMGEDKIKFKHITPLQEQSKEVAIRIFQGCQFRSVEAVQEITEYAKSIPGFVNLDLNDQVTLLKYGVHEIIYTMLASLMNKDGVLISEGQGFMTREFLKSLRKPFGDFMEPKFEFAVKFNALELDDSDLAIFIAVIILSGDRPGLLNVKPIEDIQDNLLQALELQLKLNHPESSQLFAKLLQKMTDLRQIVTEHVQLLQVIKKTETDMSLHPLLQEIYKDLY
modifications: PPAR gamma 2 recombinant polypeptide comprising GSCKG in Zinc finger domain
B2: GSV: human PPARγ2 with GSCKV substitutions in the P-box of the Zinc finger domain (SEQ ID NO: 8) (protein)
chain: B1 chain with G161V
modifications: PPAR gamma 2 recombinant polypeptide comprising GSCKV in Zinc finger domain

Experiments:
[1] = form not soluble in water, doses between 5 and 50 mg/kg, for example 30 mg/kg; cited from earlier work
[2] = test system: PPAR Response Elements (PPREs) of wt origin or mutated response sequence (CYP4A6m1); test: Luciferase reporter cotransfection with PPAR polypeptide and response element plasmids; assay type: cell-based, murine; conditions: for luciferase activity from response elements: C2C12 murine myoblasts, untreated or treated with BRL49653 PPARγ ligand, panel of wt and mutated response elements
Source text: FIG. 2: Comparison of PPAR polypeptides derived from human PPARγ2 receptor. C2C12 murine myoblasts were cotransfected with a mixture of 3 different plasmids: (i) a plasmid expressing the wt or a mutated hPPARγ2; (ii) a plasmid in which the luc+ gene expression is driven by an inducible target sequence made of multiple PPAR Response Elements (PPREs) of wt origin (CYP4A6, CYP4A1 and HMG) or mutated response sequence (CYP4A6m1=SEQ ID No.: 26, CYP4A6m2=control with sequence 5′ GAACT AGGGCA A AGAACA 3′ (SEQ ID No.: 41), CYP4 μm=SEQ ID No.: 22, and HMGm=SEQ ID No.: 34); and (iii) a plasmid expressing the Renilla luciferase gene as an internal control of transfection efficiency. Measurement of luciferase activity for untreated cells (white bars) or cells treated with the BRL49653 PPARγ ligand (grey bars) is shown for each response element (left Y-axis). The relative induction level (x fold induction) resulting from ligand treatment is also shown (dots and right Y-axis)). Nomenclature for the PPAR amino acid sequences used refers to the first, second, and fifth (bolded) amino acid in the P-box of the Zinc finger domain, where wild type is EGCKG (see box in FIG. 1, panel B).
FIG. 3: DNA-binding specificity of the GSV mutant. C2C12 murine myoblasts were cotransfected with a mixture of 3 different plasmids: (i) a plasmid expressing the wt EGG or the GSV mutated hPPARγ2; (ii) a plasmid in which the luc+ gene expression is driven by an inducible target sequence made of multiple wt PPREs (apoAII, BIF, PPREcon, CYP4A1, CYP4A6, FABP, HMG and MEP cloned in sense (-S) or anti-sense (-AS) orientation) or the mutated response element (noted as “m” sequences in FIG. 6, such as CYP4A6m1=SEQ ID No.: 26); and (iii) a plasmid expressing the Renilla luciferase gene as an internal control of transfection efficiency. Expression levels for untreated cells (white) or cells treated with the BRL49653 PPARγ ligand (grey) are shown in left Y-axis and the relative induction (x fold induction) due to ligand treatment is shown in right Y-axis (dots).
One skilled in the art is familiar with protocols for transfecting plasmids into cell or infecting cells with virus. As an example, murine myoblasts (C2C12; ATCC: CRL1772) and human HEK293 (ATCC: CRL1573) cells are seeded in 24-well plates (7.5×10^4 cells per well) and grown for 24 h in DMEM supplemented with 10% FCS. Cells are washed in DMEM without serum and transfected in triplicate by adding to the cells 0.5 ml of OptiMEM mixed with various quantities of reporter gene (AP or luc) encoding plasmid, supplemented to 500 ng with a carrier plasmid and LipofectAMINE (2 μl for C2C12, 3 μl for HEK293). Five hours later, the medium containing the DNA and the LipofectAMINE is replaced by 1 ml of DMEM supplemented with FCS (2% for C2C12, 10% for HEK293). […]

Row | Molecule | plasma concentration [1] | luciferase activity from response elements [2] | relative induction level resulting from ligand treatment ([2]; C2C12, BRL49653 treatment, CYP4A6m1 response element) | luciferase activity from response elements ([2]; listed as PPARγ2 (GSV))
1 | CN(CCOc1ccc(CC2SC(=O)NC2=O)cc1)c1ccccn1 (centres unmarked) [BRL49653, rosiglitazone] | about 15 μg/ml | – | – | –
2 | B1 | – | particularly strong and selective | – | –
3 | B2 | – | highly selective | highest induction levels | specific for the CYP4A6m1
